{
  "source": "patent US8119594B1",
  "about": "“Method of modulating integrin mediated cellular activity and agents useful for same” (Inter-K Pty Limited, priority 1999, dated 2012)",
  "test_system": "β6-bound ERK",
  "assay": "β6 immunoprecipitation and ERK Western blot in transfected SW480 cells",
  "assay_type": "cell-based, human",
  "conditions": "SW480 transfectants; mAb R6G9 immunoprecipitates probed with E10; FIG. 27(B)",
  "description": "Construction of the β6 Δ746-764 (SEQ ID NO. 19) deletion mutant in the vector pcDNA1neo and failure of the expressed receptor to localise to focal adhesions in Chinese hamster ovary cells has been reported (Cone et al, 1994).\nEqual protein loads of cell lysates prepared from SW480 cells were immunoprecipitated with either anti-β6 monoclonal antibody (mAb R6G9) or matched isotype control antibody.",
  "data": [
    {"molecule": "β6 Δ746-764 deletion mutant: β6 subunit expressed from a deletion construct lacking the coding sequence for … (protein) WLCLGGAETCEDCLLIGPQCAWCAQENFTHPSGVGERCDTPANLLAKGCQLNFIENPVSQVEILKNKPLSVGRQKNSSDIVQIAPQSLILKLRPGGAQTLQVHVRQTEDYPVDLYYLMDLSASMDDDLNTIKELGSGLSKEMSKLTSNFRLGFGSFVEKPVSPFVKTTPEEIANPCSSIPYFCLPTFGFKHILPLTNDAERFNEIVKNQKISANIDTPEGGFDAIMQAAVCKEKIGWRNDSLHLLVFVSDADSHFGMDSKLAGIVIPNDGLCHLDSKNEYSMSTVLEYPTIGQLIDKLVQNNVLLIFAVTQEQVHLYENYAKLIPGATVGLLQKDSGNILQLIISAYEELRSEVELEVLGDTEGLNLSFTAICNNGTLFQHQKKCSHMKVGDTASFSVTVNIPHCERRSRHIIIKPVGLGDALELLVSPECNCDCQKEVEVNSSKCHHGNGSFQCGVCACHPGHMGPRCECGEDMLSTDSCKEAPDHPSCSGRGDCYCGQCICHLSPYGNIYGPYCQCDNFSCVRHKGLLCGGNGDCDCGECVCRSGWTGEYCNCTTSTDSCVSEDGVLCSGRGDCVCGKCVCTNPGASGPTCERCPTCGDPCNSKRSCIECHLSAAGQAGEECVDKCKLAGATISEEEDFSKDGSVSCSLQGENECLITFLITTDNEGKTIIHSINEKDCPKPPNIPMIMLGVSLATLLIGVVLLCIWKLLVSFHDRKEVAKFSTSTFKNVTYKHREKQKVDLSTDC", "values": [
      {"measurement": "reduction of β6-bound ERK relative to wild type receptor", "result": "> 75", "unit": "%"}
    ]}
  ]
}
